Key:
[1] = target: yeast alcohol dehydrogenase (ADH) from Saccharomyces cerevisiae (Saccharomyces cerevisiae) (UniProt P00330); test: native MS
native MS = target: the molecule itself; test: native MS

yeast alcohol dehydrogenase (ADH) from Saccharomyces cerevisiae, sequence (P00330 whole entry): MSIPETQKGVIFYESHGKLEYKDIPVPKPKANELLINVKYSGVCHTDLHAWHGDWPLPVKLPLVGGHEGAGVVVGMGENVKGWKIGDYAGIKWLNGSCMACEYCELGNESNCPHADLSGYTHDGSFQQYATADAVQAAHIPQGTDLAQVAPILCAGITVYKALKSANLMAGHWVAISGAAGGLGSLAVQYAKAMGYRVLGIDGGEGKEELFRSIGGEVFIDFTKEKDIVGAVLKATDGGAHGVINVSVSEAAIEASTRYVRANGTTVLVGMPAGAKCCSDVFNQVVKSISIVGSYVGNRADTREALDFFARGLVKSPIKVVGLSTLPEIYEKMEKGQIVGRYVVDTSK

Row | Molecule | stoichiometry N [1] | stoichiometry N (native MS)
1 | yeast alcohol dehydrogenase (ADH) from Saccharomyces cerevisiae (from UniProt P00330 1-348) (enzyme) | 4 | –
2 | Fenna-Matthews-Olson (FMO) antenna protein from the green sulfur bacterium Chlorobaculum tepidum (natural protein, UniProt Q46393 1-366, looked up) MALFGSNDVTTAHSDYEIVLEGGSSSWGKVKARAKVNAPPASPLLPADCDVKLNVKPLDPAKGFVRISAVFESIVDSTKNKLTIEADIANETKERRISVGEGMVSVGDFSHTFSFEGSVVNLFYYRSDAVRRNVPNPIYMQGRQFHDILMKVPLDNNDLIDTWEGTVKAIGSTGAFNDWIRDFWFIGPAFTALNEGGQRISRIEVNGLNTESGPKGPVGVSRWRFSHGGSGMVDSISRWAELFPSDKLNRPAQVEAGFRSDSQGIEVKVDGEFPGVSVDAGGGLRRILNHPLIPLVHHGMVGKFNNFNVDAQLKVVLPKGYKIRYAAPQYRSQNLEEYRWSGGAYARWVEHVCKGGVGQFEILYAQ | – | 3
